Reference: the DeepSol protein solubility set

Test: soluble on expression in E. coli; label from the status in PepcDB or PDB records

Sequence | soluble on expression in E. coli
MGSDKIHHHHHHMPLKSSYSDQLKKTDQSLIALLSDRISLLASEQPSLDEQLASVAPLLAQAGIPESVWAGVVNSCHASLTPKSAINHASPRQVTIIGGRGRMGRLFQEQLSLVGHNVSILEHEDWEYAEQLLSQAELVLVSVPIEHTVDVIKRAAKYLASNTALCDITSIKTQPTQAMLEHHCGPVMGLHPMFGPNIKSFLGQKVVVCPGRNDDSFQWLLDFLKSKGGELIVCTPEEHDRMMVIIQATQHFCRFSLGVFLAQARVEIEQSLTMSTPNYRQEIDIVKRLFAQNPNLCVDIMLATEERCNAISFLANTYSRLARLVARKDREALIKEFENTQSFFEGKINSFLQPLNTTALKRDFKPQNIGI | not soluble
MGHHHHHHSHMANSMANSMNNRTRLALIICNTEFDHLPPRNGADFDITGMKELLEGLDYSVDVEENLTARDMESALRAFATRPEHKSSDSTFLVLMSHGILEGICGTVHDEKKPDVLLYDTIFQIFNNRNCLSLKDKPKVIIVQACRGANRGELWVRDSPASLEVASSQSSENLEEDAVYKTHVEKDFIAFCSSTPHNVSWRDSTMGSIFITQLITCFQKYSWCCHLEEVFRKVQQSFETPRAKAQMPTIERLSMTRYFYLFPGN | not soluble
MAGQEDPVQREIHQDWANREYIEVITSSIKKIADFLNSFDMSCRSRLATLNEKLTALERRIEYIEARVTKGETLT | soluble
MQFQIGAQGDIADMLTMCNNFPGFEAPMRYMIENSHDVVTVFDGSPAVIVLDELVKADESSYLPFKMKKSYKKVDEIAAKMASEEIHFTIHLSSHSQKNVIQIFQSAYSDGYTEEDKKGKIPEGGRVKCAGTETGARSNVKCEEVAKEVNEYIDSNKDKFGDLKVESLGKADSFMKQKPRRNLFIRVPPLE | not soluble
MSVSFMELGSADSAEAAANKVAHHVEQMMETSDFFDRLTQHGTTPVSGLGEKFYVKGAPEFVSTRRIPIPGELQMQMSNIHSEFSMGFFTQISRVWVVIDNNLYMWNYETNDDLAFFDSSDAAILKVSLVNIKPGVFEPEIQYGLVVGTISDICLYPVFDFVENGASSISIDSKRCFKIALDGATVNDISYTSNGRVFYTADDQLFEFVYEKQNGWFGSTNHKCRGVNQTASILGTLISLPFFGSSKEPLDQITIDKSRNIMYLLGRAGTVSVWDLGADGAACAKFLSVPISKIAHEAHILTQFGHDETSFHSITSIKALEASQSAALNLVATTAKGVRLYFSVSTGPQSTMAMFNNSGTPNERNRPQTSVRPQCLRVAHVRFAPGVTPASIYGDGPNGVSVVYADECTRL | not soluble
MGSDKIHHHHHHMGSSPARMSSGAPAPRVEVECLKAYSAPLEGRRGLLRLDFNENTIGPSPRVLEALRAIPADQIAVYPEYDGLREAVVANLSNRDQGRPGLTQPLSPSQIGLFNGVDAAIHAIFHAYGDRGDRLLTTSPTFGYYTPCAQMQGMKILAIPYEGSDFRFPLQVIRTLLQQKRPRLLLLCNPNNPTGTRLAPEQILELAVAAPETLVVVDELYEAFTGDSVLPQADFSVTPNLLVLRSLAKTAGLAGLRMGFAIGSADVIDRVSRVTGPYDINSFAVTAAFAALDDQAYVDAYVADVLKARDWISARLDASGVPYHLDGGNYLLIWPQQQPTEVEAALRKRGILVRLMTGKPLIDGSLRVSIGTIEQMQQFWQAFATVESLAA | not soluble
MDVQDLKPPKPLYLERVGFRGVRRRALLETPEGPVTLDLELDVFVDLDRSKRGVHLSRNIEAVEAVVSERRARSIEGLLRSIAKELLSRHGYAEKATVRARTRYYIDLEAAGVKGREPVDVAVTVSLTRSGGERWRVAVSVKGMTVCPSAQSTIAEAEGISDPSRAPSHSQKVLLKGTVDTGKVMVRIEDLARALLQSFSAPTFTLLKKPQEARLILEAFTRPMFVEDVVREAAWRIAAIPYIPGEALLQVEAVSLESIHPHDLVAMLRSRVSEVRSLASRSV | not soluble
MGSDKIHHHHHHVSKPHYKTTNWKQYNQALINRGSLTFWIDEDAIAKWKAKVEQPKKGRPRVFSDLAITTALMVKRIFSMPLRALQGFINSVFKLGDIPLSCPHYTCISKRAKTVNIAFKTKTRGAIKHLAIDSTGLKVYGEGEWKVKKHGTDGKRRVWRKLHIAVDTHSHEIIAAELSLSGVTDAEVMPNLLKQTHRKIRNISGDGAYDTKACHEAVRRKRALVLIPPREGAALWEQGHPRNLAVSWQQLHGSNKQWKKRYGYHRRSISETAMYRIKQLLGGTLSMRNYNAQVGETYAMIRALNKLTGLGMPETHYVA | not soluble
MSLTEPRQAHRLHILKVALDVPLDGVFDYLSEAPVQIGQRVVVPFGPRRQVGIVVDLADASDVAPAKLKSIIQYFDQEPVLDGEFFSLLKFCADYYQYPYGQALLSALPARLRQTEPARARQQFCYWLNSAGQAADISAIPVRQAVQRRIFAALRAHGRLNEAELAELSPGWRKGLAALRERGWIEEEQVYAGLGSTLHASSVQPELNEEQVLAVQSILQYRDTFRPWLLHGITGSGKTEVYIRLLQAVLEGNQDQALVLVPEINLTPQLEARFRTRLPQFPLVTLHSNLSESERLQNWRLAQTGAARIVIGTRLSVFTPLPGLKFMIVDEEHDTSYKQQDGMRYHARDVALVRAQRRNIPIVLGSATPALETWHNARNGRYGLLTLQQRAVSQSQLPQVNCVDVSRVQMQEGLSPQLLKALKVRLERGEQSLLFINRRGYAPVLLCNACHWIAPCMRCSSRLVVHLRQGFLRCHHCGHEQNIVRQCPSCGNADLHPTGNGTQRLEETLTRLLPEARVLRVDRDSTRRKHALSEMLSAVHVGEVDILVGTQMLAKGHDFPNLTLVGVLDTDSALFSPDFRAAERLFAQLMQVAGRAGRADKPGEVLIQTSFPEHQLFNALRVQDFAAYAASLLQEREVAQFPPCEFLALIKAEANEYGPVQRFLQFAADSARALGTDALVYDPVRPQMERLKGMERGQLLFQAATRQTLQIVLRQLTPQLRAHPLSNKIRWAVDVDPQEEGHHHHHH | not soluble
DPSVFSLPDSKLPGDKEFVPWQQDLDDSVKPTQQARPTVIRWSEGGKEVFISGSFNNWSTKIPLIKSHNDFVAILDLPEGEHQYKFFVDGQWVHDPSEPVVTSQLGTINNLIHVKKSDFEVFDALKLDSMESSETSCRV | not soluble
MRSKGFLHLDTEIVVPFFDVDMMNIVWHGHYVKYLEVARCALLDHIGHNYMQMLESGYGWPVIDLQLRYVRSAVFGQKLNVRASLVEWENRLKINYLITDADTGERLTRASTVQVAVDRDSHEMQLASPQVFIDAVKRALPLEHHHHHH | soluble
MEWKPNRADKTPVYKQIADYIERGISSGEFPSDSKLPSERMLAKELQVNRSTIVAAYEELKSLGVVERQKGSGTRVNTDIWGVSHKRIPNWGRYVEDGSFLPNVPLVQQIRTETQKDDLINLASGELSPELIPSDRFRTILSEKTFMENLGYDHPLGNEMLRKTIAAHVQQYKQIEADSSSILITSGAQQALNLIVQCLLKPGDAIAIEDPSYCFSLPMFKSAGLNIFHLPVDEHGMNPDDLIDLHKKHRIRMVFLNPDYQNPTGTVLSLARRKKILELSSEFGIPIVEDDPYSLISFNGEVNPTLKSMDQNGNVLYISSLSKIVASGLRIGWIIGPTRVIERLADAKQQVDFGHSVFTQWVANQFLESKDFHKHITILRGQLKQRRDVLIAELEGTLGDRVECFVPEGGIHVWCKVKGKFDEYHLLGESIQNGVAFVPGSVLGSKNEYIRFTFGRANIEQIQLGIKRFADTLNEIS | not soluble
MKPVPTYVQDKDESTLMFSVCSLVRDQAKYDRLLESFERFGFTPDKAEFLAADNREGNQFHGFSWHKQMLPRCKGRYVIFCHEDVELVDRGYDDLVAAIEALEEADPKWLVAGVAGSPWRPLNHSVTAQALHISDVFGNDRRRGNVPCRVESLDECFLLMRRLKPVLNSYDMQGFHYYGADLCLQAEFLGGRAYAIDFHLHHYGRAIADENFHRLRQEMAQKYRRWFPGRILHCVTGRVALGGGWYEAR | soluble
MIQLNLPPYEHRIHQEDESMFIFDSIRRRYVALTPEEWVRQHFVHYLTDVLGYPADLIRNEAQLRIDRRRKRCDTVVYDTNLRPIVLCEYKAPTVSLTQKTMDQILCYNFIFRVPLLLLSNGLQHAACLVDYEQSGYVFLPEIPSYEELTTIIQSNQ | not soluble
MSLTDDRYTVISADCHAGADLLDYRPYLAKRHHDAFDAWAATYVNPYEDLLADTADRNWNSERRLAELAADGIVAEVVFPNTIPPFFPSASLMAPAPTAAEFEQRWAGLRAHNRWLADFCAAAPGRRAGVFQILLNDVEEAVKEISWAAGAGLRGGLLLPGTPPGSGLPELYSKAYDPIWAVCEELDVPVNHHAGSASPPLGDEPAARAVFMVETTWFSHRALWHLVFGGAFRRHPGLRLVLTEQGSGWIPGVLDMLDYYHGRLVAAGPKSATAEAKFGAGLDRAMGKGPSEVWRDNCFVGASFMRPHEVPLRDRIGLDKIMWGSDYPHDEGTYPYSREGLRIAYAGLPRTEIAAMAGGNAARVYGFDLSEGHHHHHH | soluble
SMPAYACQRPSPLTHHNTLLSEALETLAEAAGFEANEGRLLSFSRAASVLKSLPCPVASLSQLHGLPYFGEHSTRVIQELLEHGTCEEVKQVRCSERYQTMKLFTQVFGVGVKTANRWYQEGLRTLDELREQPQRLTQQQKAGLQYYQDLSTPVRRADAEALQQLIEAAVRQTLPGATVTLTGGFRRGKLQGHDVDFLITHPEEGQEVGLLPKVMSCLQSQGLVLYHQYHRSHLADSAHNLRQRSSTMDVFERSFCILGLPQPQQAALAGALPPCPTWKAVRVDLVVTPSSQFPFALLGWTGSQFFERELRRFSRQEKGLWLNSHGLFDPEQKRVFHATSEEDVFRLLGLKYLPPEQRNA | soluble
MGSDKIHHHHHHMRYPEGMALQNKFPILWDCFLQRINDALKATTQEELGRRLGVGKSAITKWRHGSTRGADLQDFLRYCDVLGIDFCGIINGTPTPTYSPSPFEIALTGVLDSFLSVHNLTHEKAASSLWPETANGAAKLGSILTAKEPLTPEVLMQLCLLMEEDPGKLLRLARERVQPEGEQISGNAKSA | not soluble
PEWDEYIAEQIESGALGEDEGAEFLERWMVQKQHPLDINTLTREDLEQFPFLNEFQIRRFLLYRHAHPEGFDSIWVLSEIAGWDRRTCLLLWPMLTVQKRSESAAASFREILSYARHDVSVHTDAILQQQEGYRPDSRHPYRGDPWGGGLRWSYAMGNRFSLGLTASKDRGEPAFDKRRKGFDSYSAHFFMEGKGAVRAVALGDYRIG | not soluble
GPHMTQEEAVVNASLWEYVRLRESYDADTAQYAYDLVSNFSAPMVRQNYQQFFNYPNPTSPQVILGKHGRLEVEHIASNDVTPGVQQIRYKRTLIVDGKMPMASTWTATVRYEKVTSLPGRLRLTNPGGLVVTSYQTSEDTVSNAGHSEP | soluble
MGSDKIHHHHHHMRKISVFDTTLRDGEQSAGVNLNFEEKMEIAKQLERLGVDIIEAGFPASSQGDFQSVKAIAETVKGSSVTGLARSVQKDIDAAWEALKSAEEPRIHLFIATSPIHMEHKLRMTPEQVIEKAVESVKYAASRFKHVQWSAEDASRSDFPFLAQIIEAVIQAGATVINLPDTVGYTTPQEIKRMFQYMKQNVPSIDKVSLSTHNHDDLGMAVANSLAAIQGGADQVECTINGIGERAGNASLEEIAVALNIRKDHYETETGLILKEIKRTSSLVSKLTGMVVPNNKAVVGANAFAHESGIHQDGVLKNKQTYEIITPEMVGVSSNSMVLGKHSGRHAFKTKVQELGFTGTDEQLNNIFKAFKDLADKKKEITEDDLFALMTEQTVGGETNHYELQTLQVNYGSNLTNTATITMKLPSGEVAEEAATGSGSVEAIYNTLERLLDAPVKLLDYRIQSITGGRDALADVYVQMDYQGVVSSGRGTAHDVLEASAKAYLNAVNRTINRKKYAEVYGSKVEV | not soluble
